T1: purified β2-chimaerin (UniProt P52757-1 1-468)
T1 sequence: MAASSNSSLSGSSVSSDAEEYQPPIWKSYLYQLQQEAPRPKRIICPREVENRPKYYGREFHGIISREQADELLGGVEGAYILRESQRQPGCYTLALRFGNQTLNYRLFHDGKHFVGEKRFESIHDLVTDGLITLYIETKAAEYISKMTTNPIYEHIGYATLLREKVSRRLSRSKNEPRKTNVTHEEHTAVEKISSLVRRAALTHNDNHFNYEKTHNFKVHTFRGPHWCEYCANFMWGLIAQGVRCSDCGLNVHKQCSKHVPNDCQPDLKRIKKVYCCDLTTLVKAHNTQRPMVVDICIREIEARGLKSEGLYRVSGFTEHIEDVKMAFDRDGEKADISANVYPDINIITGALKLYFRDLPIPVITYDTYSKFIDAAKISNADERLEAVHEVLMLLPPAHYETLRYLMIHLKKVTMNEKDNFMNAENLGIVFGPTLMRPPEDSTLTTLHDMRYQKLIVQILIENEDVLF

B1: Nck1 SH3-3 (purified third SH3 domain of Nck1) (domain or fragment)
chain: QVLHVVQALYPFSSSNDEELNFEKGDVMDVIEKPENDPEWWKCRKINGMVGLVPKNYVTVMQN

Columns and labels:
[1] = target: GST-Nck1 SH3-3 (UniProt P16333); test: SPR
[2] = target: T1, purified β2-chimaerin; test: co-sedimentation

Molecule | Kd [1] [µM] | Kd [2] [µM]
WT-β2-chim peptide (β2-chimaerin amino acids 34–59) | 18 | –
B1 | – | 1.7

Reference: article PMC3700536 (Nature communications, 2013)
